In US7208293:

How the values were obtained:
[1] = molecular target: anhydro-trypsin (UniProt P00760); test: acid elution from anhydrotrypsin beads, experiment 2
[2] = molecular target: human neutrophil elastase (human) (UniProt P08246); test: acid elution from HNE beads
[3] = molecular target: anhydro-trypsin (UniProt P00760); test: loss of titer on anhydrotrypsin beads
[4] = molecular target: trypsin (UniProt P00760); test: elution from trypsin beads
[5] = molecular target: trypsin (UniProt P00760); test: acid elution from trypsin beads
[6] = molecular target: anhydro-trypsin (UniProt P00760); test: acid elution from anhydrotrypsin beads, experiment 1
[7] = molecular target: anhydro-trypsin (UniProt P00760); test: elution from anhydrotrypsin beads
[8] = molecular target: human Cathepsin G (human) (UniProt P08311); test: Cat-G beads, pH 4.0 elution
Chain of human Cathepsin G (human) (P08311 21-244 limits assumed): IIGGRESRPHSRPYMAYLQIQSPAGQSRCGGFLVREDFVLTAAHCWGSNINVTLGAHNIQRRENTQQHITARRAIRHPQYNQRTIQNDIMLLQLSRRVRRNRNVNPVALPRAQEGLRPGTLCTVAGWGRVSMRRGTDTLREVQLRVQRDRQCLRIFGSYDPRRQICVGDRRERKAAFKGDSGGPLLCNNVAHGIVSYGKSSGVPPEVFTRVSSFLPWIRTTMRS

[9] = molecular target: human Cathepsin G (human) (UniProt P08311); test: Cat-G beads, SUM of all pH elution fractions
[10] = molecular target: human neutrophil elastase (human) (UniProt P08246); test: HNE beads, abbreviated fractionation, pH 2.0
[11] = molecular target: human neutrophil elastase (human) (UniProt P08246); test: HNE beads, abbreviated fractionation, SUM of pH fractions
[12] = molecular target: human neutrophil elastase (human) (UniProt P08246); test: HNE beads, pH 5.5 elution
[13] = molecular target: human neutrophil elastase (human) (UniProt P08246); test: HNE beads, pH 3.0 elution
[14] = molecular target: human neutrophil elastase (human) (UniProt P08246); test: HNE beads, abbreviated fractionation, pH 7.0
[15] = molecular target: human Cathepsin G (human) (UniProt P08311); test: Cat-G beads, pH 5.0 elution
[16] = molecular target: human neutrophil elastase (human) (UniProt P08246); test: HNE beads, pH 4.0 elution
[17] = molecular target: human Cathepsin G (human) (UniProt P08311); test: Cat-G beads, pH 2.0 elution
[18] = molecular target: human neutrophil elastase (human) (UniProt P08246); test: HNE beads, final TBS-TWEEN wash
[19] = molecular target: human Cathepsin G (human) (UniProt P08311); test: Cat-G beads, pH 6.0 elution
[20] = molecular target: human neutrophil elastase (human) (UniProt P08246); test: HNE beads, pH 5.0 elution
[21] = molecular target: human Cathepsin G (human) (UniProt P08311); test: Cat-G beads, pH 3.0 elution
[22] = molecular target: human neutrophil elastase (human) (UniProt P08246); test: HNE beads, pH 7.0 elution
[23] = molecular target: human neutrophil elastase (human) (UniProt P08246); test: HNE beads, pH 2.5 elution
[24] = molecular target: human neutrophil elastase (human) (UniProt P08246); test: HNE beads, abbreviated fractionation, WASH
[25] = molecular target: human Cathepsin G (human) (UniProt P08311); test: Cat-G beads, pH 2.5 elution
[26] = molecular target: human neutrophil elastase (human) (UniProt P08246); test: HNE beads, pH 3.5 elution
[27] = molecular target: human Cathepsin G (human) (UniProt P08311); test: Cat-G beads, final TBS-TWEEN wash
[28] = molecular target: human Cathepsin G (human) (UniProt P08311); test: Cat-G beads, pH 7.0 elution
[29] = molecular target: human neutrophil elastase (human) (UniProt P08246); test: HNE beads, pH 2.0 elution
[30] = molecular target: human neutrophil elastase (human) (UniProt P08246); test: HNE beads, SUM of all pH elution fractions
[31] = molecular target: human Cathepsin G (human) (UniProt P08311); test: Cat-G beads, pH 3.5 elution
[32] = molecular target: human Cathepsin G (human) (UniProt P08311); test: Cat-G beads, pH 4.5 elution
[33] = molecular target: human neutrophil elastase (human) (UniProt P08246); test: HNE beads, pH 6.0 elution
[34] = molecular target: human Cathepsin G (human) (UniProt P08311); test: Cat-G beads, pH 5.5 elution
[35] = molecular target: human neutrophil elastase (human) (UniProt P08246); test: HNE beads, pH 4.5 elution
[36] = molecular target: human neutrophil elastase (human) (UniProt P08246); test: HNE beads, abbreviated fractionation, pH 3.5
[37] = molecular target: trypsin (UniProt P00760); test: immobilized trypsin, TBS buffer pH 7.5, pH 2.2 elution
[38] = molecular target: trypsin (UniProt P00760); test: immobilized trypsin, CBS buffer pH 6.5, pH 2.2 elution
[39] = molecular target: M13 MB48 phage (BPTI:VIII fusion display phage) (bovine BPTI fused to phage M13 gene VIII protein); test: strain M13MB48 batch 4; NRS IgG and protein A-agarose
[40] = molecular target: M13 MB48 phage (BPTI:VIII fusion display phage) (bovine BPTI fused to phage M13 gene VIII protein); test: strain M13MB48 batch 5; NRS IgG added
[41] = molecular target: M13 MB48 phage (BPTI:VIII fusion display phage) (bovine BPTI fused to phage M13 gene VIII protein); test: strain M13MB48 batch 5; NRS IgG and protein A-agarose
[42] = molecular target: M13 MB48 phage (BPTI:VIII fusion display phage) (bovine BPTI fused to phage M13 gene VIII protein); test: strain M13MB48 batch 4; NRS IgG added
[43] = molecular target: M13 mp18 phage; test: strain M13MP18; NRS IgG and protein A-agarose
[44] = molecular target: M13 mp18 phage; test: strain M13MP18; IgG from normal rabbit serum added
[45] = molecular target: M13 MB48 phage (BPTI:VIII fusion display phage) (bovine BPTI fused to phage M13 gene VIII protein); test: strain M13MB48 batch 5; protein A-agarose alone

Chain of human neutrophil elastase (human) (P08246 30-247 limits assumed): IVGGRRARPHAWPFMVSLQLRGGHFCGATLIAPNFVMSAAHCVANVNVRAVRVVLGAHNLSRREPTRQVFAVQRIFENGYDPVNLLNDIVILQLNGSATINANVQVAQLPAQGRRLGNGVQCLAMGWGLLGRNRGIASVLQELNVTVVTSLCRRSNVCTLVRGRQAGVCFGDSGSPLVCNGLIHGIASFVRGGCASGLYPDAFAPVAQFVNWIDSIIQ
Chain of trypsin (P00760 24-246): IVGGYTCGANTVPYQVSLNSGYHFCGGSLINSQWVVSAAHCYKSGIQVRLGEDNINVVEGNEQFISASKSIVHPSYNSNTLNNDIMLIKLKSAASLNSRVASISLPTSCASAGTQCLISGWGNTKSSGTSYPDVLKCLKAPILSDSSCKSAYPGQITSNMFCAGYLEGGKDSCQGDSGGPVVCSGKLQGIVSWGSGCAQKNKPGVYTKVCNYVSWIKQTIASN
Chain of anhydro-trypsin (P00760 24-246): as above

M13 mp18 phage gave an eluted phage, percentage of input [1] of 0.3%, a relative to M13mp18 [1] of 1 and an eluted phage, percentage of input [2] of 0.0003%. The relative binding (to M13MP18) [2] was 1, the pfu post incubation, percentage of input [3] was 121% and the eluted phage, percentage of input [4] was 0.00023%. The relative binding (to M13MP18) [4] was 1, the eluted phage, percentage of input [5] was 0.0005% and the relative binding (to M13MP18) [5] was 1. For the same substance, the eluted phage, percentage of input [6] was 0.2%, the relative to M13MP18 [6] was 1 and the eluted phage, percentage of input [7] was 0.1%. For the same substance, the relative binding (to M13MP18) [7] was 1.
Substance “MA-ITI phage (ITI-D1-III fusion display phage) (from UniProt P02760 22-77)” has a fraction of input [8] of 9.6e-07, a total pfu in sample [8] of 440000 pfu and a fraction of input [9] of 3e-05. For the same substance, the total pfu in sample [9] was 1.4e+07 pfu, the fraction of input [10] was 1e-06 and the fraction of input [11] was 1.4e-05. It also gave a fraction of input [12] of 4.7e-06, a total pfu in sample [12] of 1.6e+06 pfu and a fraction of input [13] of 8.5e-08. For the same substance, the total pfu in sample [13] was 29000 pfu, the fraction of input [14] was 1e-05 and the fraction of input [15] was 2.4e-06. The total pfu in sample [15] was 1.1e+06 pfu, the fraction of input [16] was 2.1e-07 and the total pfu in sample [16] was 72000 pfu. For the same substance, the fraction of input [17] was 7e-07, the total pfu in sample [17] was 320000 pfu and the fraction of input [18] was 5.3e-06. The total pfu in sample [18] was 1.8e+06 pfu, the fraction of input [19] was 5e-06 and the total pfu in sample [19] was 2.3e+06 pfu. It also gave a fraction of input [20] of 9.1e-07, a total pfu in sample [20] of 310000 pfu and a fraction of input [21] of 7.8e-07. The total pfu in sample [21] was 360000 pfu, the fraction of input [22] was 4.7e-06 and the total pfu in sample [22] was 1.6e+06 pfu. For the same substance, the fraction of input [23] was 4.1e-08, the total pfu in sample [23] was 14000 pfu and the fraction of input [24] was 1e-05. For the same substance, the fraction of input [25] was 5.9e-07, the total pfu in sample [25] was 270000 pfu and the fraction of input [26] was 1.4e-07. It also gave a total pfu in sample [26] of 49000 pfu, a fraction of input [27] of 1.5e-05 and a total pfu in sample [27] of 7.1e+06 pfu. For the same substance, the fraction of input [28] was 1.3e-05, the total pfu in sample [28] was 6.1e+06 pfu and the fraction of input [29] was 5e-08. It also gave a total pfu in sample [29] of 17000 pfu, a fraction of input [30] of 2e-05 and a total pfu in sample [30] of 5.7e+06 pfu. For the same substance, the fraction of input [31] was 9.6e-07, the total pfu in sample [31] was 440000 pfu and the fraction of input [32] was 1.5e-06. For the same substance, the total pfu in sample [32] was 670000 pfu, the fraction of input [33] was 2.9e-06 and the total pfu in sample [33] was 1e+06 pfu. The fraction of input [34] was 2.6e-06, the total pfu in sample [34] was 1.2e+06 pfu and the fraction of input [35] was 3.5e-07. The total pfu in sample [35] was 120000 pfu and the fraction of input [36] was 3e-06.
Substance MK phage has a percent of input phage recovered [37] of 0.00034% and a percent of input phage recovered [38] of 0.00028%.
Substance “normal rabbit serum / IgG purified from normal rabbit serum (antibody)” has a percentage of input phage (pfu) remaining [39] of 121%, a percentage of input phage (pfu) remaining [40] of 105% and a percentage of input phage (pfu) remaining [41] of 110%. For the same substance, the percentage of input phage (pfu) remaining [42] was 125%, the percentage of input phage (pfu) remaining [43] was 88% and the percentage of input phage (pfu) remaining [44] was 104%.
With protein A (agarose beads) the percentage of input phage (pfu) remaining [45] was 58%.
